Measured values reported in US20210163622A1 (FATE THERAPEUTICS, published 2021).

Biological target: T1, human MICA on target cells (human, UniProt Q29983 24-383)
T1 sequence (looked up): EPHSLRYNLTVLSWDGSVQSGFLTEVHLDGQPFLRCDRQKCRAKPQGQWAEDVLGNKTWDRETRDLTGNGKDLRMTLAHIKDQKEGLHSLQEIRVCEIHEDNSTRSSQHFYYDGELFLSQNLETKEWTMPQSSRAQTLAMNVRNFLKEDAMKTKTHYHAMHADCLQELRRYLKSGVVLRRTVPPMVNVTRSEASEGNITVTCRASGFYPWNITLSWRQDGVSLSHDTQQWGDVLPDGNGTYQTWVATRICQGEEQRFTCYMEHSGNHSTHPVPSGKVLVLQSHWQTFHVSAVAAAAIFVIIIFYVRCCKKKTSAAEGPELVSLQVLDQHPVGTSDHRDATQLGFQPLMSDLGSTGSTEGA
Assay: cell-based or functional assay

B1: MICA/B CAR (chimeric antigen receptor with a MICA/B-binding scFV; version not stated at the assay) (scFv, V domains shown)
VH: QIQLVQSGPELKKPGETVKVSCKASGYMFTNYAMNWVKQAPEKGLKWMGWINTHTGDPTYADDFKGRIAFSLETSASTAYLQINNLKNEDTATYFCVRTYGNYAMDYWGQGTSVTVSS
VL: DIQMTQTTSSLSASLGDRVTISCSASQDISNYLNWYQQKPDGTVKLLIYDTSILHLGVPSRFSGSGSGTDYSLTISNLEPEDIATYYCQQYSKFPRTFGGGTTLEIK
cytotoxicity of MICA/B CAR+ T cells against MICA+ Nalm6 cells, % Caspase 3/7+ target cells over E:T ratio, 4 h (EC50): ~1.9
cytotoxicity of MICA/B CAR+ iNK cells against P815 MICA+ cells, % Caspase 3/7+ target cells over E:T ratio, 4 h (EC50): ~5.2
